In general, Kd refers to a measure of binding affinity in units of concentration.

The values below come from paper doi:10.1101/2022.05.16.492129, “Cachd1 is a novel Frizzled- and LRP6-interacting protein required for neurons to acquire left-right asymmetric character” (bioRxiv, 2022).

To fix the notation:
B2: mouse Cachd1 extracellular domain (CACHD1ECD) (domain or fragment)
chain: DADFSILDEAQVLASQMRRLAAEELGVVTMQRIFNSLVYTEKISNGESEVQQLAKKIREKFNRYLDVVNRNKQVVEASYTAHLTSPLTAIQDCCTIPPSMMEFDGNFNTNVSRTVSCDRLSTTVNSRAFNPGRDLNSVLADNLKSNPGIKWQYFSSEEGIFTVFPAHKFRCKGSYEHRSRPIYVSTVRPQSKHIVVILDHGASVTDTQLQIAKDAAQVILSAIDEHDKISVLTVADAVRTCSLDQCYKTYLSPATSETKRKMSTFVSSVKPSDSPTQHAVGFHRAFQLIRSTSNSTRFQANTDMVIIYLSAGITSKDSSEEDKKATLRVINEENGFLNNSVMILTYALMNDGVTGLKELAFLRDLAEQNSGKYGIPDRTALPVIKGSMMVLNQLSNLETTVGRFYTNLPNRMIDEAVFSLPFSDEMGDGLIMTVSKPCYFGNLLLGIVGVDVNLAYILEDVTYYQDSLASYTFLIDDKGYTLMHPSLTRPYLLSEPPLHTDIIHYENIPKFELVRQNILSLPLGSQIITVPVNSSLSWHINKLRETGKEAYNVSYAWKMVQDTSFILCIVVIQPEIPVKQLKNLNTVPSSKLLYHRLDLLGQPSACLHFKQLATLESPTVMLSAGSFSSPYEHLSQPETKRMVEHYTAYLSDNTRLIANPGLKFSVRNEVMATSHVTDEWMTQMEMSSLNTYIVRRYIATPNGVLRIYPGSLMDKAFDPTRRQWYLHAVANPGLISLTGPYLDVGGAGYVVTISHTIHSSSTQLSSGHTVAVMGIDFTLRYFYKVLMDLLPVCNQDGGNKIRCFIMEDRGYLVAHPTLVDPKGHAPLEQQHITHKEPLVANDILNHPNFVKKNLCNSFSDRTVQRSYKFNTSLVGDLTNLVHGSHCSKYRLTRIPGTNAFVGIVNETCDSLAFCACSMVDRLCLNCHRMEQNECECPCECPLEVNECTGNLTNAENRNPSCEVHQEPVTYTAIDPGLQDALQQCVNSRCNQRMESGDCFGVLDCEWCVVDSDGKTHLDKSYCAPQKECFGGIVGAKSPYVDDMGAIGDEVITLNMIKS
notes: mouse Cachd1 extracellular domain, residues D50-S1107, in pNeoSec; also called mouse CACHD1ECD; source: deglycosylated with EndoF1 before crystallisation

Common to all, as to conditions: both partners purified
For test [1], the target named is B2. In words: SPR; biotinylated FZD CRDs or LRP6 fragments immobilised (about 500-1,000 RU) on an SA sensor chip, CACHD1ECD as analyte at 100 μL/min; Biacore S200, 25 °C, 10 mM HEPES pH 7.5, 150 mM NaCl, 0.005% Tween 20; equilibrium response fitted to a one-site saturation binding model.
Test [2] has as its target human FZD7 cysteine rich domain (FZD7CRD), biotinylated, for SPR (human, UniProt O75084 33-170, biotin). Described as above.
Test [3] concerns the target B2. In words: crystal structure; ternary complex: Cachd1ECD mixed with equal molar FZD5CRD and LRP6 P3E3P4E4; 0.1 M calcium acetate, 0.1 M sodium acetate pH 4.5, 10% (w/v) PEG 4000; 4.7 Å.

B1: mouse FZD5 cysteine rich domain (FZD5CRD), biotinylated, for SPR (domain or fragment, UniProt Q9EQD0 27-157, looked up)
chain: ASKAPVCQEITVPMCRGIGYNLTHMPNQFNHDTQDEAGLEVHQFWPLVEIHCSPDLRFFLCSMYTPICLPDYHKPLPPCRSVCERAKAGCSPLMRQYGFAWPERMSCDRLPVLGGDAEVLCMDYNRSEATT
modifications: biotin
notes: mouse Fzd5 cysteine rich domain, residues A27-T157, synthesised (Genscript); also called mouse FZD5CRD; source: HEK293T, co-transfected with a BirA-ER plasmid
In test [1], B1 had a Kd of 480 nM. That is a sub-micromolar value. On to B2, for which the Kd in test [2] is 14200 nM.

B3: human LRP6 P3E3P4E4 (membrane proximal fragment), biotinylated, for SPR (domain or fragment, UniProt O75581 629-1244, looked up)
chain: VPEAFLLFSRRADIRRISLETNNNNVAIPLTGVKEASALDFDVTDNRIYWTDISLKTISRAFMNGSALEHVVEFGLDYPEGMAVDWLGKNLYWADTGTNRIEVSKLDGQHRQVLVWKDLDSPRALALDPAEGFMYWTEWGGKPKIDRAAMDGSERTTLVPNVGRANGLTIDYAKRRLYWTDLDTNLIESSNMLGLNREVIADDLPHPFGLTQYQDYIYWTDWSRRSIERANKTSGQNRTIIQGHLDYVMDILVFHSSRQSGWNECASSNGHCSHLCLAVPVGGFVCGCPAHYSLNADNRTCSAPTTFLLFSQKSAINRMVIDEQQSPDIILPIHSLRNVRAIDYDPLDKQLYWIDSRQNMIRKAQEDGSQGFTVVVSSVPSQNLEIQPYDLSIDIYSRYIYWTCEATNVINVTRLDGRSVGVVLKGEQDRPRAVVVNPEKGYMYFTNLQERSPKIERAALDGTEREVLFFSGLSKPIALALDSRLGKLFWADSDLRRIESSDLSGANRIVLEDSNILQPVGLTVFENWLYWIDKQQQMIEKIDMTGREGRTKVQARIAQLSDIHAVKELNLQEYRQHPCAQDNGGCSHICLVKGDGTTRCSCPMHLVLLQDELSCG
modifications: biotin
notes: human LRP6 P3E3P4E4 domains, residues V629-G1244; also called 3-4; source: HEK293T, co-transfected with a BirA-ER plasmid
The molecule B3 came in with a Kd in test [1] of 170 nM.

B4: human LRP6 P3E3P4E4, for crystallography (domain or fragment, UniProt O75581 629-1244, looked up)
chain: VPEAFLLFSRRADIRRISLETNNNNVAIPLTGVKEASALDFDVTDNRIYWTDISLKTISRAFMNGSALEHVVEFGLDYPEGMAVDWLGKNLYWADTGTNRIEVSKLDGQHRQVLVWKDLDSPRALALDPAEGFMYWTEWGGKPKIDRAAMDGSERTTLVPNVGRANGLTIDYAKRRLYWTDLDTNLIESSNMLGLNREVIADDLPHPFGLTQYQDYIYWTDWSRRSIERANKTSGQNRTIIQGHLDYVMDILVFHSSRQSGWNECASSNGHCSHLCLAVPVGGFVCGCPAHYSLNADNRTCSAPTTFLLFSQKSAINRMVIDEQQSPDIILPIHSLRNVRAIDYDPLDKQLYWIDSRQNMIRKAQEDGSQGFTVVVSSVPSQNLEIQPYDLSIDIYSRYIYWTCEATNVINVTRLDGRSVGVVLKGEQDRPRAVVVNPEKGYMYFTNLQERSPKIERAALDGTEREVLFFSGLSKPIALALDSRLGKLFWADSDLRRIESSDLSGANRIVLEDSNILQPVGLTVFENWLYWIDKQQQMIEKIDMTGREGRTKVQARIAQLSDIHAVKELNLQEYRQHPCAQDNGGCSHICLVKGDGTTRCSCPMHLVLLQDELSCG
notes: human LRP6 P3E3P4E4 domains, residues V629-G1244
Regarding B4, the binding result in test [3] is “binds”.

B5: human FZD8 cysteine rich domain (FZD8CRD), biotinylated, for SPR (domain or fragment, UniProt Q9H461 28-158, looked up)
chain: ASAKELACQEITVPLCKGIGYNYTYMPNQFNHDTQDEAGLEVHQFWPLVEIQCSPDLKFFLCSMYTPICLEDYKKPLPPCRSVCERAKAGCAPLMRQYGFAWPDRMRCDRLPEQGNPDTLCMDYNRTDLTT
modifications: biotin
notes: human FZD8 CRD, residues A28-T158, synthesised (Genscript); also called human FZD8CRD; source: HEK293T, co-transfected with a BirA-ER plasmid
B5 came in with a Kd in test [1] of 950 nM.

B6: human LRP6 P1E1P2E2 (membrane distal fragment), biotinylated, for SPR (domain or fragment, UniProt O75581 20-630, looked up)
chain: APLLLYANRRDLRLVDATNGKENATIVVGGLEDAAAVDFVFSHGLIYWSDVSEEAIKRTEFNKTESVQNVVVSGLLSPDGLACDWLGEKLYWTDSETNRIEVSNLDGSLRKVLFWQELDQPRAIALDPSSGFMYWTDWGEVPKIERAGMDGSSRFIIINSEIYWPNGLTLDYEEQKLYWADAKLNFIHKSNLDGTNRQAVVKGSLPHPFALTLFEDILYWTDWSTHSILACNKYTGEGLREIHSDIFSPMDIHAFSQQRQPNATNPCGIDNGGCSHLCLMSPVKPFYQCACPTGVKLLENGKTCKDGATELLLLARRTDLRRISLDTPDFTDIVLQLEDIRHAIAIDYDPVEGYIYWTDDEVRAIRRSFIDGSGSQFVVTAQIAHPDGIAVDWVARNLYWTDTGTDRIEVTRLNGTMRKILISEDLEEPRAIVLDPMVGYMYWTDWGEIPKIERAALDGSDRVVLVNTSLGWPNGLALDYDEGKIYWGDAKTDKIEVMNTDGTGRRVLVEDKIPHIFGFTLLGDYVYWTDWQRRSIERVHKRSAEREVIIDQLPDLMGLKATNVHRVIGSNPCAEENGGCSHLCLYRPQGLRCACPIGFELISDMKTCIVP
modifications: biotin
notes: human LRP6 P1E1P2E2 domains, residues A20-P630; source: HEK293T, co-transfected with a BirA-ER plasmid
As for B6, binding in test [1] was put at a Kd of 5860 nM.
